Measurements from US20250243260A1 (ALPINE IMMUNE SCIENCES, published 2025).

Assays:
human PD-L1 [1] = target: T1, human PD-L1 (human, UniProt Q9NZQ7 19-290); assay: flow cytometry, SCC152 cells transduced with human PD-L1, anti-human Fc detection
T1 construct: whole, on cells
Description: (§1) Binding affinity to CD28 was determined using primary human T cells which endogenously express CD28. Binding to PD-L1 was determined using SCC152 cells transduced with human PD-L1. Binding to CTLA-4 was measured using Chinese hamster ovary (CHO) cells stably transduced to express human CTLA-4.
(§2) For staining and analysis by flow cytometry, 75,000 human T cells, SCC152/PD-L1 cells, or CHO/CTLA-4 cells were plated in 96-well round-bottom plates. Cells were spun down and resuspended in staining buffer (PBS (phosphate buffered saline), 1% BSA (bovine serum albumin), 1 mM EDTA, and 0.1% sodium azide) for 20 minutes to block non-specific binding. Afterwards, cells were centrifuged, stain buffer aspirated, and then resuspended in 50 μL of a 1:5 serial dilution of each CD80-Fc candidate variant starting at 100 nM ending at 0.8 nM. Primary staining was performed on ice for 60 minutes, before washing cells in […] staining buffer three times. PE-conjugated anti-human Fc (Jackson ImmunoResearch, USA) was diluted 1:250 in 50 μL staining buffer and added to cells and incubated another 30 minutes at 4° C. Cells were washed two times in 150 μL stain buffer and then fixed in 2% formaldehyde/PBS for 5 minutes at room temperature. Samples were analyzed CytoFLEX LX flow cytometer (Beckman Coulter, USA). Median Fluorescence Intensity (MFI) was calculated for each cell type using the CytExpert software from Beckman Coulter.
(§3) Binding assays were carried out to assess the specificity and affinity of multivalent proteins to cell-expressed CTLA-4, CD28, and PD-L1 counter structures.

human PD-L1 [2] = target: T1, human PD-L1; assay: flow cytometry, SCC152 cells transduced with human PD-L1; MFI against WT CD80 ECD-Fc
Description: as §1, §2, §3

T1 sequence (Q9NZQ7 19-290): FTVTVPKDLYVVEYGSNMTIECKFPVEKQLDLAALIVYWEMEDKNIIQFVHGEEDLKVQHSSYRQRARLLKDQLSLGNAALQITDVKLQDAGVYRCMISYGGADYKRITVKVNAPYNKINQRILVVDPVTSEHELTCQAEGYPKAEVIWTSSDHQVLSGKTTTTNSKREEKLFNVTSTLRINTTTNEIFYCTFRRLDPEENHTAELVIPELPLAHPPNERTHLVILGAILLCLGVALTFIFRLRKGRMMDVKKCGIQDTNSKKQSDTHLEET

B1: CD80-Fc-CD80_341 (CD80_197 V11Y/E35D/Y87Q/T101R) (Fc fusion)
chain: VIHVTKEVKEYATLSCGHNVSVEELAQTRIYWQKDKKMVLTMMSGDMNIWPEYKNRTIFDITNNLSIVILALRPSDEGTYECVVLKQEKDAFKREHLAEVRLSVKADGSGGGGSPCPPCPAPEFLGGPSVFLFPPKPKDTLMISRTPEVTCVVVDVSQEDPEVQFNWYVDGVEVHNAKTKPREEQFNSTYRVVSVLTVLHQDWLNGKEYKCKVSNKGLPSSIEKTISKAKGQPREPQVYTLPPSQEEMTKNQVSLTCLVKGFYPSDIAVEWESNGQPENNYKTTPPVLDSDGSFFLYSRLTVDKSRWQEGNVFSCSVMHEALHNHYTQKSLSLSLGGGGGSGGGGSGGGGSVIHVTKEVKEYATLSCGYNVSVEELAQTRIYWQKDKKMVLTMMSGDMNIWPEYKNRTIFDITNNLSIVILALRPSDEGTYECVVLKQEKDAFKREHLAEVRLSVKAD
notes: tetravalent
With B1 the “Anti-Human Fc (MFI) at 0.8 nM” value (human PD-L1 [1]) was 4750 MFI, the “Anti-Human Fc (MFI) at 4 nM” value (human PD-L1 [1]) was 6410 MFI and the “Anti-Human Fc (MFI) at 20 nM” value (human PD-L1 [1]) was 7100 MFI. For the same binder, the “Anti-Human Fc (MFI) at 100 nM” value (human PD-L1 [1]) was 7810 MFI and the “Fold change vs WT CD80 @20 nM” value (human PD-L1 [2]) was 10.4 fold.
